This note sets out measurements from PMC5372222.

Data set [1] deals with T1, human alpha-thrombin (Homo sapiens, UniProt P00734;P00734 328-363;364-622). Description: blot with protected Apt-AuNP probe and gold enhancement; thrombin in 10-fold diluted human serum on PVDF; protection DNA 1 uM before 10x dilution; as low as 30 ng detected; binding buffer 100 mM NaCl, 20 mM Tris-HCl, 2 mM MgCl2, 5 mM KCl, 1 mM CaCl2, 0.02% Tween 20; pH and temperature of binding not stated.

Data set [2] addresses T1, human alpha-thrombin. Briefly: blot with Apt-AuNP probe and gold enhancement; thrombin in 10-fold diluted human serum on PVDF; strong background from serum proteins; binding buffer 100 mM NaCl, 20 mM Tris-HCl, 2 mM MgCl2, 5 mM KCl, 1 mM CaCl2, 0.02% Tween 20; pH and temperature of binding not stated.

B1: thrombin 15-mer aptamer protected with PolyA-Oligo10 on AuNP (mixed)
DNA: GGTTGGTGTGGTTGG
?: AAAAAAAAAAAAAAAAAAAACCAACCACAC
modifications: 5'-SH-(CH2)6 thiol on strand 1
Take B1: in data set [1], the binding result is “binds”. GGTTGGTGTGGTTGG (ssDNA, 5'-SH-(CH2)6 thiol) [thrombin 15-mer aptamer on AuNP (Apt-AuNP)]: in data set [2], the binding result is listed as “binds”.
